{
  "source": "patent US20030143656A1",
  "about": "(published 2003)",
  "binders": {"B1": {"name": "full length S6K1 mutant in which Thr412 and all five phosphorylated C-terminal residues were mutated to acidic residues (enzyme, human, UniProt P23443 1-525, looked up)", "chain": "MRRRRRRDGFYPAPDFRDREAEDMAGVFDIDLDQPEDAGSEDELEEGGQLNESMDHGGVGPYELGMEHCEKFEISETSVNRGPEKIRPECFELLRVLGKGGYGKVFQVRKVTGANTGKIFAMKVLKKAMIVRNAKDTAHTKAERNILEEVKHPFIVDLIYAFQTGGKLYLILEYLSGGELFMQLEREGIFMEDTACFYLAEISMALGHLHQKGIIYRDLKPENIMLNHQGHVKLTDFGLCKESIHDGTVTHTFCGTIEYMAPEILMRSGHNRAVDWWSLGALMYDMLTGAPPFTGENRKKTIDKILKCKLNLPPYLTQEARDLLKKLLKRNAASRLGAGPGDAGEVQAHPFFRHINWEELLARKVEPPFKPLLQSEEDVSQFDSKFTRQTPVDSPDDSTLSESANQVFLGFEYVAPSVLESVKEKFSFEPKIRDPRRFIGDPREPVDPVKFDPGDFWGRGASASTANPQTPVEYPMETSGIEQMDVTMSGEASAPLPIRQPNSGPYKKQAFPMISKRPEHLRMNL", "notes": "mature"}, "B2": {"name": "GST-PDK1 K115A (enzyme, not shown: a dimerising Fc or GST; small tags and cut ends)", "chain": "MARTTSQLYDAVPIQSSVVLCSCPSPSMVRTQTESSTPPGIPGGSRQGPAMDGTAAEPRPGAGSLQHAQPPPQPRKKRPEDFKFGKILGEGSFSTVVLARELATSREYAIKILEARHIIKENKVPYVTRERDVMSRLDHPFFVKLYFTFQDDEKLYFGLSYAKNGELLKYIRKIGSFDETCTRFYTAEIVSALEYLHGKGIIHRDLKPENILLNEDMHIQITDFGTAKVLSPESKQARANSFVGTAQYVSPELLTEKSACKSSDLWALGCIIYQLVAGLPPFRAGNEYLIFQKIIKLEYDFPEKFFPKARDLVEKLLVLDATKRLGCEEMEGYGPLKAHPFFESVTWENLHQQTPPKLTAYLPAMSEDDEDCYGNYDNLLSQFGCMQVSSSSSSHSLSASDTGLPQRSGSNIEQYIHDLDSNSFELDLQFSEDEKRLLLEKQAGGNPWHQFVENNLILKMGPVDKRKGLFARRRQLLLTEGPHLYYVDPVNKVLKGEIPWSQELRPEAKNFKTFFVHTPNRTYYLMDPSGNAHKWCRKIQEVWRQRYQSHPDAAVQ"}, "B3": {"name": "GST-PDK1 Q150A (enzyme, human, UniProt O15530 1-556, looked up)", "chain": "B2 chain with A115K, Q150A", "notes": "range 1-556; not shown: N-terminal GST tag, pEBG2T vector"}, "B4": {"name": "GST-PDK1 L155A (enzyme, human, UniProt O15530 1-556, looked up)", "chain": "B2 chain with A115K, L155A", "notes": "as for B3"}, "B5": {"name": "PIFtide (peptide)", "peptide": "REPRILSEEEQEMFRDFDYIADWC"}},
  "key": {"[1]": {"target": "T1, GST-PDK1 L155E (human, UniProt O15530 1-556)", "T1 construct": "range 1-556; not shown: N-terminal GST tag, pEBG2T vector", "T1 sequence (looked up)": "B2 chain with A115K, L155E", "test": "binding experiment not described (presumably pull-down)", "description": "Binding of PDK1 to SGK1 and S6K1. For the data presented in FIG. 22, 293 cells were cotransfected with 10 μg of the wild type or mutant PDK1 plasmid and 10 μg of either the wild type or mutant S6K1 or SGK1. 36 h post-transfection the cells were lysed in 0.6 ml of Buffer A and the lysates were cleared by centrifugation at 13 000×g for 10 min at 2° C., and 0.5 ml of supernatant was incubated for 2 h at 4° C. with 30 μl of glutathione-Sepharose. The beads were washed twice in Buffer A containing 0.5 M NaCl, followed by two further washes in Buffer A. The beads were resuspended in 30 μl Laemmli Sample Buffer and subjected to SDS polyacrylamide gel electrophoresis. The gels were either stained with Coomassie blue, or analysed by immunoblotting with either anti-Flag or anti-Myc antibodies (described below).\nInteraction of S6K1 and SGK1 with PDK1. […] We therefore tested whether this could be explained by the inability of full length S6K1 to interact with PDK1. To test this hypothesis we coexpressed in 293 cells GST-PDK1 together with full length S6K1, fill length S6K1[T412E] and the C-terminal truncated forms of these mutants (S6K1-T2 and S6K1-T2[T412E]) which have Flag epitope tags. Glutathione-Sepharose “pull-downs” of GST-PDK1 from these extracts were immunoblotted for the presence of Flag epitope tagged S6K1. […] S6K1-T2[T412E] interacted moderately better with GST-PDK1 compared to S6K1-T2."}, "[2]": {"target": "B5", "test": "method not stated (reference mark lost)"}, "[3]": {"target": "B5", "test": "method not stated (unpublished data)"}, "[4]": {"target": "B3", "test": "cell-based or functional assay"}, "[5]": {"target": "B2", "test": "cell-based or functional assay"}, "[6]": {"target": "T2, GST-PDK1 (wild type) (human, UniProt O15530 1-556)", "T2 sequence (looked up)": "B2 chain with A115K", "test": "cell-based or functional assay"}, "[7]": {"target": "B4", "test": "cell-based or functional assay"}},
  "note": "Residue numbers refer to the chain shown, from its start. Numbers in names are those of the source.",
  "data": [
    {"binder": "B1", "values": [
      {"measurement": "binding result", "setting": "[1]", "result": "no binding"}
    ]},
    {"binder": "B2", "values": [
      {"measurement": "fold decrease in affinity for PIFtide", "setting": "[2]", "result": "~10", "unit": "fold"}
    ]},
    {"binder": "B3", "values": [
      {"measurement": "fold decrease in affinity for PIFtide", "setting": "[2]", "result": "~10", "unit": "fold"}
    ]},
    {"binder": "B4", "values": [
      {"measurement": "fold decrease in affinity for PIFtide", "setting": "[3]", "result": "~10", "unit": "fold"}
    ]},
    {"binder": "B5", "values": [
      {"measurement": "inhibition by 2 µM PIFtide of the activation of S6K1-T2[T412E] and SGK1[T422D] by the PDK1 mutant", "setting": "[4]", "result": "~50", "unit": "%"},
      {"measurement": "inhibition by 35 µM PIFtide of the activation of S6K1-T2[T412E] and SGK1[T422D] by the PDK1 mutant", "setting": "[4]", "result": "> 95", "unit": "%"},
      {"measurement": "stimulation of the PDK1 mutant towards T308tide by PIF", "setting": "[4]", "result": "~2", "unit": "fold"},
      {"measurement": "inhibition by 2 µM PIFtide of the activation of S6K1-T2[T412E] and SGK1[T422D] by the PDK1 mutant", "setting": "[5]", "result": "~50", "unit": "%"},
      {"measurement": "inhibition by 35 µM PIFtide of the activation of S6K1-T2[T412E] and SGK1[T422D] by the PDK1 mutant", "setting": "[5]", "result": "> 95", "unit": "%"},
      {"measurement": "increase of PDK1 activity towards T308tide", "setting": "[6]", "result": "≤ 4", "unit": "fold"},
      {"measurement": "increase of TM50 (heat inactivation of GST-PDK1)", "setting": "[6]", "result": "8 to 10", "unit": "°C"},
      {"measurement": "inhibition by 2 µM PIFtide of the activation of S6K1[T412E] by wild type PDK1", "setting": "[6]", "result": "> 20", "unit": "fold"},
      {"measurement": "inhibition by 2 µM PIFtide of the activation of S6K1-T2[T412E] and SGK1[T422D] by the PDK1 mutant", "setting": "[7]", "result": "~50", "unit": "%"},
      {"measurement": "inhibition by 35 µM PIFtide of the activation of S6K1-T2[T412E] and SGK1[T422D] by the PDK1 mutant", "setting": "[7]", "result": "> 95", "unit": "%"}
    ]},
    {"binder": "REPRILSEEEQEMFRDFAYLADWC", "note": "[D978A-PIFtide]", "values": [
      {"measurement": "fold decrease in activation of PDK1 towards T308tide, against wild type PIFtide", "setting": "[6]", "result": 8, "unit": "fold"}
    ]}
  ]
}
